Consider 68 sequences from the domain aggregation screens of Martell et al. (2025).

This data set is described as follows: soluble fraction after stress (log2 fold change); higher = more stays soluble; pooled small domains, quantitative proteomics. The settings on record: stress: pH 4. Put shortly:
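Custom libraries of small protein domains were pooled and exposed to pH 4. High-throughput quantitative proteomics then measured the log2 fold change in the amount of each domain still soluble, with higher values meaning more stayed soluble. This soluble-fraction fold change stands for aggregation propensity.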
On to “HMPTTTFENLPDAKKKTIIAALLKEFSQSPLSKAQVAPIVKESQIARGAFYKYFVDLTDAYTYLYRQ”, for which the “soluble fraction (log2)” value was -0.217.
With “HMPTVLKQGSTGQEVKELQQALSKLGYRVTVTGEFDTATHYGVVRFQRKHRLTIDGIVGPQTLSKIRAHQK” the figure was -0.0726.
For “HMPVAPTYALTVKTDPPSANVRLLNSPTPYQPGVRLPSGNYDIEVTQSGYATRKESVRIADRDVALNIAL” the value was 0.0432; for “HMPVASNRDVNLDIGERVFVQEWAPNRTARVQYRGSPWEARLAPGAPAAAGEHRVSAVEGNWLVLEPA”, -0.19.
For “HMPVEFVKISIKPGHPWENQFVRDIVSLPDLLMVLILRGEERIIPNGNTKILVGDKIVLSALSPG” the value was -1.4.
For “HMPVEHVWHIAENGQTSGPYSKARMGRMAQEGQLTRDTHVWTPGQDGWMRAGDVTELAQLFT”, the “soluble fraction (log2)” value is -0.0732.
With “HMPVFSLTPRELEILEWMSTPNTYRQIAAQLSVSEETVRSHAKNILEKMRQPNRAQAVLAAVKMGLIKL” the figure was -0.772; with “HMPVISGQDLRVLIRDTGRERDQGISFLDDGTMVVVEDARRLIGQEVTATVTRVHQTQTGRIVFAHLSN”, -0.698; with “HMPVPSPAEQTATQLANIERHTGITVDGWTRAIAEAGAAKHGEIVAWLKQQGLTHGNANALAHAVRARQSG”, 0.173.
With “HMPVQSNRDALLDIGQTLQVQAWDAQGSARVSYRGSDWTAEFRGPGAAAPGLHRIIAVQGNRLIVEPA” the figure was -0.164.
With “HMPVRIYEISKKLGLENKEVLATAKSLGIAAAKVPSSSLDKITAEYLEEEILKSHPEVAARLK” the figure was at least 0.43.
With “HMPVYEEEVPAALDGQRLDRVVAMVTGLSRSEVGALLAAGAVTVDGTTPAKGSVRLAAGSIVSVTVS”, the “soluble fraction (log2)” value was -0.366.
With “HMQAATGVVTASVLNIRQGPGTNYTKVGSLLKGAQVEIVGQNGAWSKIRLKSGITGWVNSSYLKTST” the figure was -0.085; with “HMQAGPEDIIRAKLKTAMPEAQIISIRPTPAGLYQVNAKGYESVFVTADGRYLFQGDLLEIQGDRIVNL”, -0.714; with “HMQAKNGTVTGSVVNVRGGAGTQYAVKGKASRGTKVTILGQQSSWLNVRLDNGVTGWIHADYVQISE”, -1.43.
For “HMQAPHLALSPREFQVLQGLLAGDALDIIAERLHLSAKTVSNHQTLIRQKLGVGNAVELLRYAQLHRL” the value was -0.661; for “HMQAPIFMNETDGKWYFREKYLNDNHEIAYRVHPEGYDQMEDALRNSVNALNEFAAEMKELRKQV”, -0.64.
With “HMQAPVVNHDLIKSFERQWREIKATAKGKVRSVNLSDARSILQSFLNTLQKGPGTDSLISSVQNELSLIA” the figure was 0.00595; with “HMQARDQNVDEGKALLEKEFSRLALENLDRDKLANAVNYPTRDDMYAAIGAGDLRVGQVLHQAQQLF”, -0.323; with “HMQASTGNVNTETLNLRKEASTSADILKLLSQGDEVEIVSESNGWYKVKYKDTEGFVSKEYITVN”, -0.159.
In the case of “HMQATETFSLIVPMSSAGNRLDVVLSELLPNFSRKKIQDAIKNGDATLNGKAPKIRDKVYGGENITITLIL”, the “soluble fraction (log2)” value was 0.0369.
As to “HMQAVDPLELRAGDFVVHEQHGIGRYVEMVQRTIGGITREYLVIEYAPAKRGQPNDRVFVPTDTLEQVS”, the “soluble fraction (log2)” value was -0.579.
“HMQAVKQIKVERGMTLEKIAQSEFGDSTRWGEIVEVNNLRAPYISDDPTETRDGVLKPGSNLLIPIP”: the “soluble fraction (log2)” value was -0.825.
In the case of “HMQDEAQLSMSNKYIFEGNSIVKDNFIEAEKKYRLGVSAKPNNAVGSYNLANAYYNSKLYDEAMLRLL”, the “soluble fraction (log2)” value is -0.179.
For “HMQDEREEIAVEDVVGMPLWQARKVIADQGFRVLDDGAGDIVIAQMPSGGGKLIEGGQVMLYTYTD” the value was -0.201.
With “HMQDFEEILKNAKIEDFKHTQTGEDLKVLKIEDKIEDFKGFNAYLVKNQIAYYSKFARGFVVKNIEKLQGV” the figure was 0.155; with “HMQDFEQNLFDGKSIYDRMLSKFSLHNVDVKQLVAHFKRKDTEQFFADIGRGLITSAQMLGFLQT”, -0.219.
With “HMQDLVAVPALTGLTENDAINKAKANNLIAVVSEYKTENSVEPGKVLEQDPESSTEVKKGTIIKLVVS”, the “soluble fraction (log2)” value is 0.16.
For “HMQDQVTLIVQVNGKLRGQISISTDATKELIEQTALANENVQKFVDGQSIKKIIIVPGRLVNIV”, the “soluble fraction (log2)” value came to 0.22.
With “HMQDRDKNVPAGKELLDNEIARLNMSLKQVEQFALPRYNLKTLEDLYSGIGSGDIRLNHLINFLQSKLI” the figure was -0.892; with “HMQDREIHIHAGREVLEKELSRLSLHLKNTNLQEYAARFNVKTAEDILAGIGAGDIRPAHVVNLIADKL”, -0.222; with “HMQDSSGENNPQSKLTQQQVDLLMKDLKETNVEFDKLAEKYNVSIKTIRNVNTGIAWRKNDITYPIREP”, -0.255.
Turning to “HMQDTQAEEGETLLDALRRIHPESSTGTLRRMLTQGRVQLDGDSVHAAKTVLSAGQRVEVVAR”, the “soluble fraction (log2)” value was found to be 0.088.
For “HMQDTTLTSQILRVPSSVNINDLANVLKSLAGKNTVVAPYKAANTIIITGYAPNVRRVLSLANELIPRLDV” the value was -0.0875.
With “HMQEAGLITQRIREMREKENWTQEYMAEQLGMSENGYAKIERGESNLSLKRLQQIADIFEVESAELLK” the figure was -0.566; with “HMQEDKSKYLFQRGTAITVLRPAGIVRIGKERVDAVSNGSYIDRGVAVRVIEVEGTRVVVEPVPE”, -0.151; with “HMQEEMIRGDIKLNTVMQTVHLAVGTETERNWQPVETTAKEFELLKLLMENPGVTLKKEYLFHMLI”, -0.654.
With “HMQEESISWKEFLELDIIGDKKKRLKVYDLFHLGYGNAKTLFKRLNMVGISREMIEKELENEGY” the figure was -0.0561.
Turning to “HMQEKIREVANRIRELRESLEVSPEEMADHLKVTIGTYIEYERGEADIPASVLFGIAHRLNVDMAVLL”, the “soluble fraction (log2)” value was -1.36.
For “HMQEKLELIIPVSSIGKRADVAIQDLLSSYSRAKIQEWIKSGFILLESKKISPKDIFMGGERVFIDIQQDE” the value was -1.38; for “HMQELVPGKVFEGTVTEMKNGQVTLGLSDGKTISARMEQGVSLAKGQPMLFEVKSNTGEQIAIRPVVL”, 0.105; for “HMQENKVLEGKVLEKKKKKVFVDLSPFGVGVIRGVNYLEAKNELKDIEEGDNIKVRVLEIDNENGFIELAL”, -1.13.
For “HMQERQREGFVQQLRGKYSGQVVMRLFPELQGKALGEFMRKFEAQWEDHEAVLAAMEAHEIESRLKVFK” the value was -1.2; for “HMQETALANFETNEGVQKVKQYVQENVPSLRGSNIVGVWTSYTPEGLTNYRTRFLTQDGQFVEVNLAYQ”, -0.885.
With “HMQETIDVAALRVGMFVHLDLGWLAHPFPLSSFRISSEDQISTIRALGLKRVRWSSQHSELG” the figure was -1.27; with “HMQETKDEGAQVLLNKINALVAAVQGQIITPEEAAIKLATDGDLDLDVDARVAAIEEFNKKLSEAQNN”, -0.682.
As for “HMQEVILEKIQLTYLSADKLSKMAEQFSIPVKMYWVDENPMMLMVMGNESDIATFKKVLTQIDIPENKS”, the “soluble fraction (log2)” value was -1.04.
Turning to “HMQFHQDNYALEFIRDLQPVDGAIILSRFKQFDLVELEKAKKIKFSDEHMAWTLYDYDIKKIN”, the “soluble fraction (log2)” value is -1.82.
On to “HMQFLKPQDVLFLLKLVVLKGPASIFPAVPESLGLSKAEVHNSAKRVRGARLLPHDSWNPLRKNLLEFL”, for which the “soluble fraction (log2)” value came to 0.0341.
In the case of “HMQFQVHEIKGKEYYIHVVEKGNTLYAISRMYSVPIETLKEENPRLNTTELTIGDRLLIPLDEVKRKNIE”, the “soluble fraction (log2)” value is -0.316.
With “HMQFYSGLEARLMDPNTPEVFDDPISLMAFLQQKNISRVELEDNLLLPYLKEMAGQPIPKAELLEIIRK”, the “soluble fraction (log2)” value was -2.19.
For “HMQGDHELSQRILSYLSEQGGSSPLTDKASPEEIYRIFRVSKKKYKQALGNLYKSKSIIILADKIQLL” the value was 0.195; for “HMQGEDEILKIHEALEELAQIDARLVRVVEMRYFVGLSNQEIADSLGVTTRTVERDWEKARTFLFNALHP”, -0.717.
For “HMQGISGIERSLLDALAFEPAGLDALQARTGLDTPTLQALLMGLELQGHVARLPGSLFQRLVR” the value was -1.35; for “HMQGVTVPDLTRVSLEEAVATISSLGLRYEISDRRSNAAFPANYVLDQAPGANTIVKPNRKVYLTVNAA”, 0.381.
For “HMQGWREWDYSADLYINARVGGKIEPTENSPISRVYELDEPVSVVAFTSTRYFKLSSGDYIFAEYLSAQKV” the value was -0.18; for “HMQGYELKMYVTPDTKYSVAVYDAKNEMVSYTMGFSAKAPFGQEGEVLETVKLEFDKLAVGNYELKYWI”, -0.0121.
“HMQHYQFEVDEASSKKRLDVFLSENLPEISRSRLKKLIDEKRVTVNEMSRPAGYKVRVKEKIEFHIPPL”: the “soluble fraction (log2)” value is -0.317.
For “HMQIAEAESLGQRLLQQSINNIVGRDEAITEERLNRVLSQYSLTGRDELMAQIGLGNRNSSLVAKAMYDI” the value was -0.35; for “HMQIKEVDYGTFISMTEDGEIGRVEIQQQENTILFTDEDETAVYKTAMVEDDQLTQRLYDAGISFYGEE”, -0.784; for “HMQILVEGVEANQRLDLFLRARLTEFSRSRIQGLVKNGNVLVNGNIARQAYLVQVGDKIELDVPEPVA”, 0.112.
As to “HMQIMVVDEADRMLDMGFIPDIERIFQLTPFTRQTLFFSATMAPEIERITDTFLHSPERIEVAR”, the “soluble fraction (log2)” value was -1.14.
As to “HMQISDDGFILKIINEVVAENPKSISDYISGKEAAVGFLVGQIMKKTRGKANPKLVNEMLITELAKLKN”, the “soluble fraction (log2)” value was -0.393.
For “HMQISDESSIAKIADEVISEFPSQVSEFRSGKEKVLQFLIGQVMKKTKGKANPQITAKILREKLS” the value was 0.17; for “HMQISDSASVKTVVAEAIAANPKAVADFMNGKDTATRYLVGQVMKITKGQAKPELVNQLVLESLAELKEK”, 0.226; for “HMQISDSGELEKIVLQVIEENPKPAEQVRSGNEKAIGALVGGVMKATQGRADGGEVNRLLRQHLGL”, 0.23.
As for “HMQISDVSLIAKVIDDVIDNNVKSVSDYLEGNLNVLRFLVGQVMKETKGKANPQKATELLQEKLESLNN”, the “soluble fraction (log2)” value was -0.386.
In the case of “HMQISLDTKLINLEFSVRANNVFRENQIFTLRDLTSHSKEDLMLMTNFGKTTLYEVNKKLEEHQLKLSQ”, the “soluble fraction (log2)” value was -1.53.
